Experimental data as given in publication PMC2821024.

Target: HuM7AIQ2 heavy chain, wild-type (human myosin VIIa Met1-Arg796, motor domain plus two IQ motifs) (human) (UniProt Q13402)
Assay: co-purification on anti-FLAG resin, SDS-PAGE densitometry

Sequence of UniProt Q13402 (Q13402 1-796): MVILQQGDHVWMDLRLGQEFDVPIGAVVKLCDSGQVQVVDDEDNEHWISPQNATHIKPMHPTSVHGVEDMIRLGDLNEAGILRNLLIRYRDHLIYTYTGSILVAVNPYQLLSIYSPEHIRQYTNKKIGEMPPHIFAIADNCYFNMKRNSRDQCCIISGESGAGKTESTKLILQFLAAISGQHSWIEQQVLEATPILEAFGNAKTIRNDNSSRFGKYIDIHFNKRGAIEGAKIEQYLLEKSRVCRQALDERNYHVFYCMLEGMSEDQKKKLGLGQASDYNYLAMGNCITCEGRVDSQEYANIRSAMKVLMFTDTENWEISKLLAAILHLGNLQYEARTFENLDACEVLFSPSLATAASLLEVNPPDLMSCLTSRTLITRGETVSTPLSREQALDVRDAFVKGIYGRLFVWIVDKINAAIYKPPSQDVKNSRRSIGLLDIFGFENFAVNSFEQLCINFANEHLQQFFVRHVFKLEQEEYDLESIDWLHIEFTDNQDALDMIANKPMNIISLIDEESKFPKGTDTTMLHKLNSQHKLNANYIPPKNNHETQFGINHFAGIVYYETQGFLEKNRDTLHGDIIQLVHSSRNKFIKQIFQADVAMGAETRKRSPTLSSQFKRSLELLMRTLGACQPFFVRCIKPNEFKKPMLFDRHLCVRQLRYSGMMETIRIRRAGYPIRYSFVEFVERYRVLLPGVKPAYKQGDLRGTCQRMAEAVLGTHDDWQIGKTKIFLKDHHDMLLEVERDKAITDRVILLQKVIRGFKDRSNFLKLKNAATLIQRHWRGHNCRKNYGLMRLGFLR

stoichiometry N (calmodulin per heavy chain): 1.53
Substance: calmodulin (from UniProt P0DP23 1-149) (natural protein)
